EP4663202A1 (Innovent Biologics (Suzhou) Co., Ltd., dated 2025)

What was measured:
human VEGFC [1] = biological target: T1, human VEGFC (human, UniProt P49767 103-227, limits assumed); assay: cell-based or functional assay
T1 sequence (looked up): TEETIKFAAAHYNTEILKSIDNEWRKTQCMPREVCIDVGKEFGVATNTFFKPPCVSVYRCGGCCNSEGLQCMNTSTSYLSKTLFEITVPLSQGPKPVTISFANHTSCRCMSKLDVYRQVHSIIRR

human VEGFC [2] = biological target: T1, human VEGFC; assay: biolayer interferometry (ForteBio), monovalent antigen-antibody binding, 30 C

IC50 of inhibition of VEGFC-induced activation of the KDR signaling pathway (NFAT-RE-luc2P/KDR HEK293 reporter cells) (human VEGFC [1]): ~4.46 nM | Kd (human VEGFC [2]): 5.7 nM | koff (human VEGFC [2]): 0.00036 s⁻¹ | kon (human VEGFC [2]): 63100 M⁻¹ s⁻¹
B1: anti-VEGFC antibody am63G12.1-5G8-18B9 (VHH)
VHH: EVQLVESGGGLVQPGGSLRLSCAASGSSFSPYAMGWYRQAPGKQRELVSATSSGGFTLYADSVKGRFTISRDNSKNTVYLQMNSLRAEDTAVYYCYTYYREYDPEMYWGQGTQVTVSS
notes: also called anti-VEGFC humanized VHH antibody
IC50 of inhibition of hVEGFC-induced BaF3-FLT4 survival and proliferation (CCK-8) (human VEGFC [1]): 0.792 nM
